Laboratory results taken from patent US12624112 (MABWELL SHANGHAI BIOSCIENCE, dated 2026).

molecular target: Human ST2-fc (human) (UniProt Q01638); assay: competition ELISA, coated ST2-fc, competitor IL33-his

| IC50 | Maximum inhibition rate | Relative activity compared with CNTO7160 | Binder |
| --- | --- | --- | --- |
| 2.57 µg/mL | 92.9% | 44.3% | 5888-153-H0L0 (antibody, human IgG4 S228P, kappa, V domains shown) VH: QVQLVQSGAEVKKPGASVKVSCKASGYTFTDYELHWVRQAPGQGLEWMGTIDPETGDTVYNQKFKARVTMTRDTSTSTVYMELSSLRSEDTAVYYCARAFYNDYDDGFAYWGQGTLVTVSS VL: EIVLTQSPATLSLSPGERATLSCSVSSSVSYMHWYQQKPGQAPRLLIYDTSKLASGIPARFSGSGSGTDFTLTISSLEPEDFAVYYCQQWNSSPLTFGGGTKVEIKR |
| 0.474 µg/mL | 93.5% | 240% | 5888-153-H0L2 (antibody, human IgG4 S228P, kappa, V domains shown) VH: QVQLVQSGAEVKKPGASVKVSCKASGYTFTDYELHWVRQAPGQGLEWMGTIDPETGDTVYNQKFKARVTMTRDTSTSTVYMELSSLRSEDTAVYYCARAFYNDYDDGFAYWGQGTLVTVSS VL: EIVMTQSPATLSLSPGERATLSCSVSSSVSYMHWYQQKPGQAPRRLIYDTSKLASGIPARFSGSGSGTDYTLTISSLEPEDAAVYYCQQWNTSPLTFGGGTKVEIKR |
| 0.486 µg/mL | 94.9% | 219% | 5888-116-H1L1 (antibody, human IgG4 S228P, kappa, V domains shown) VH: QVQLVQSGAEVKKPGASVKVSCKASGYTFTDSEMYWVRQAPGQGLEWMGAIDPETGDTAFNQKFKGRVTMTADKSTSTAYMELSSLRSEDTAVYYCTRAFDNDNDDGFAYWGQGTMVTVSS VL: DIQMTQSPSSLSASVGDRVTITCSASSSVNYMHWYQQKPGKAPKRLIYDTSKLASGVPSRFSGSGSGTDYTFTISSLQPEDAATYYCQQWSSNPLTFGQGTKLEIKR |
| 0.611 µg/mL | 90.7% | 187% | 5888-116-H3L1 (antibody, human IgG4 S228P, kappa, V domains shown) VH: QVQLVQSGAEVKKPGASVKVSCKASGYTFTDSEMYWVRQAPGQGLEWMGAIDPETGDTAFNQKFKGRVTMTADKSTSTAYMELSSLRSEDTAVYYCTRAFDNDNDDAFAYWGQGTMVTVSS VL: DIQMTQSPSSLSASVGDRVTITCSASSSVNYMHWYQQKPGKAPKRLIYDTSKLASGVPSRFSGSGSGTDYTFTISSLQPEDAATYYCQQWSSNPLTFGQGTKLEIKR |
| 1.32 µg/mL | 92.5% | 86.2% | 5888-153-H1L0 (antibody, human IgG4 S228P, kappa, V domains shown) VH: QVQLVQSGAEVKKPGASVKVSCKASGYTFTDYELHWVRQAPGQGLEWMGTIDPETGDTVYNQKFKARVTMTADKSTSTAYMELSSLRSEDTAVYYCTRAFYNDYDDGFAYWGQGTLVTVSS VL: EIVLTQSPATLSLSPGERATLSCSVSSSVSYMHWYQQKPGQAPRLLIYDTSKLASGIPARFSGSGSGTDFTLTISSLEPEDFAVYYCQQWNSSPLTFGGGTKVEIKR |
| 2.23 µg/mL | 92.4% | 56.2% | 5887-41-H1L1 (antibody, human IgG4 S228P, kappa, V domains shown) VH: QVQLQESGPGLVKPSQTLSLTCTVSGYSITSDYAWDWIRQPPGKGLEWIGYIRYSGDTYYNPSLKSRVTISRDTSKNQFSLKLSSVTAADTAVYYCATTMMDTMDYWGQGTLVTVSS VL: DIVLTQSPASLAVSPGQRATITCRASKSVSTSGNSYMHWYQQKPGQPPKLLIYLASNLESGVPARFSGSGSGTDFTLTINPVEANDAANYYCQHSREFPLTFGQGTKLEIKR |
| 0.0882 µg/mL | 88.3% | 1210% | 5887-537-H1L0 (antibody, human IgG4 S228P, kappa, V domains shown) VH: QVTLKESGPTLVKPTQTLTLTCTFSGFSLSTSGMGVGWIRQPPGKALEWLAHIWWDDVKQYNPALKSRLTITKDTSKSQVVLTMTNMDPVDTATYYCARIGGDYDYFDFWGQGTTVTVSS VL: DIVLTQSPASLAVSPGQRATITCRASESVEYSGTSLMQWYQQKPGQPPKLLIYVASNVESGVPARFSGSGSGTDFTLTINPVEANDTANYYCQQSRKVPWTFGQGTKLEIKR |
